Measurements taken from the supplement of paper PMC10598134.
± gives the standard deviation.

Experiment: collision cross section of modified peptide (TIMS, N2, iRT-aligned); higher = larger / more extended gas-phase ion
Outline: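 On a timsTOF Pro/HT (dda-PASEF, nitrogen, ~2.4 mbar), synthetic peptide pools were analysed after a 120-min nanoflow C18 separation at 60 °C and identified in MaxQuant. Three reference ions served for 1/K0 calibration, with run-wise alignment to the median iRT peptide deviation. Collision cross section comes from the Mason-Schamp equation, using the most abundant feature per charge state averaged over 1–3 technical replicates.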

[1] = charge state: 2, modification: Nitro (Y)
[2] = charge state: 3, modification: Nitro (Y)
[3] = charge state: 2, modification: Glutarylation
[4] = charge state: 3, modification: Glutarylation
[5] = charge state: 2, modification: Methyl (K)
[6] = charge state: 2, modification: Butyryl
[7] = charge state: 3, modification: Butyryl
[8] = charge state: 2, modification: hydroxyisobutyryl
[9] = charge state: 3, modification: hydroxyisobutyryl
[10] = charge state: 2, modification: Phospho (Y)
[11] = charge state: 2, modification: Crotonyl
[12] = charge state: 2, modification: Propionyl
[13] = charge state: 2, modification: Acetyl (K)

HIGFVYHPTK [_HIGFVY(Nitro (Y))HPTK_] showed a collision cross section [1] of 375.77 ± 0.17 Å² and a collision cross section [2] of 448.27 ± 1.8 Å².
With “TQDQISNIKYHEEFEK [_TQDQISNIK(Formyl)YHEEFEK_]” the collision cross section (charge state: 3, modification: Formyl) was 551.65 ± 1.7 Å².
“ASDTSSETVFGKR [_ASDTSSETVFGK(Gluratylation)R_]” gave a collision cross section [3] of 400.66 ± 0.51 Å² and a collision cross section [4] of 483.77 ± 1.7 Å².
For “FVDSKVGEFSGANK [_FVDSK(Methyl (K))VGEFSGANK_]”, the collision cross section [5] was 434.66 Å².
“TEVLSPNSKVESK [_TEVLSPNSK(Butyryl)VESK_]” gave a collision cross section [6] of 418.57 ± 0.77 Å² and a collision cross section [7] of 463.23 ± 20 Å².
Sequence YTQVGPDHNR [_Y(Nitro (Y))TQVGPDHNR_] has a collision cross section [1] of 361.98 ± 1.1 Å² and a collision cross section [2] of 411.69 ± 0.22 Å².
For “DAEAAEATAEGALKAEK [_DAEAAEATAEGALK(hydroxyisobutyryl)AEK_]”, the collision cross section [8] was 435.11 ± 0.29 Å² and the collision cross section [9] was 547.8 ± 2.1 Å².
For LYAVHQEGNK [_LY(Phospho (Y))AVHQEGNK_], the collision cross section [10] was 367.74 ± 0.74 Å² and the collision cross section (charge state: 3, modification: Phospho (Y)) was 466.01 ± 0.98 Å².
For “DDSFLGKLGGTLAR [_DDSFLGK(Methyl (K))LGGTLAR_]”, the collision cross section [5] was 408.16 ± 0.81 Å² and the collision cross section (charge state: 3, modification: Methyl (K)) was 476.22 ± 3.5 Å².
Sequence “SLYASSPGGVYATR [_S(HexNAc (ST))LYASSPGGVYATR_]” has a collision cross section (charge state: 3, modification: HexNAc (ST)) of 478.28 ± 0.91 Å².
“GTISAPGKVVTAAAQAK [_GTISAPGK(Crotonyl)VVTAAAQAK_]” showed a collision cross section [11] of 447.33 ± 0.83 Å² and a collision cross section (charge state: 3, modification: Crotonyl) of 518.96 ± 1.2 Å².
IQQELQTAKK [_IQQELQTAK(Dimethyl (K))K_] gave a collision cross section (charge state: 2, modification: Dimethyl (K)) of 374.44 ± 1.1 Å² and a collision cross section (charge state: 3, modification: Dimethyl (K)) of 426.86 ± 2.1 Å².
YIGTGHADTTK [_Y(Nitro (Y))IGTGHADTTK_] showed a collision cross section [1] of 358.04 ± 1.2 Å² and a collision cross section [2] of 452.29 ± 0.83 Å².
“LQEKVESAQSEQK [_LQEK(Propionyl)VESAQSEQK_]” showed a collision cross section [12] of 417.86 ± 1.3 Å² and a collision cross section (charge state: 3, modification: Propionyl) of 502.35 ± 1.5 Å².
In the case of “LGSPSGKTGTCR [_LGSPSGK(Gluratylation)TGTCR_]”, the collision cross section [3] is reported as 369.43 ± 0.9 Å².
With “PANEKATDDYHYEK [_PANEK(Trimethyl (K))ATDDYHYEK_]” the collision cross section (charge state: 3, modification: Trimethyl (K)) was 499.05 Å².
In the case of SGFGKFER [_SGFGK(Acetyl (K))FER_], the collision cross section [13] is reported as 331.68 ± 1.9 Å².
In the case of SGFGKFER [_SGFGK(Malonyl)FER_], the collision cross section (charge state: 2, modification: Malonyl) is reported as 335.56 Å².
Work on “DFDTALKHYDK [_DFDTALK(hydroxyisobutyryl)HYDK_]” yielded a collision cross section [8] of 409.01 ± 0.39 Å² and a collision cross section [9] of 468.72 ± 1.9 Å².
“AGPNASIISLKSDK [_AGPNASIISLK(Acetyl (K))SDK_]” gave a collision cross section [13] of 408.51 ± 3 Å².
In the case of LDEKENLSAK [_LDEK(Succinyl)ENLSAK_], the collision cross section (charge state: 2, modification: Succinyl) is reported as 369.34 ± 0.74 Å².
In the case of “PANEKATDDYHYEK [_PANEK(Malonyl)ATDDYHYEK_]”, the collision cross section (charge state: 3, modification: Malonyl) is reported as 498.89 ± 1.6 Å².
Sequence “TTGFYSGFSEVAEKR [_TTGFYSGFSEVAEK(Butyryl)R_]” has a collision cross section [6] of 442.26 ± 0.29 Å².
Sequence VETFSGVYK [_VETFSGVY(Phospho (Y))K_] has a collision cross section [10] of 345.95 ± 0.75 Å².
“DYSAPVNFISAGLKK [_DYSAPVNFISAGLK(Butyryl)K_]” gave a collision cross section [6] of 437.47 ± 5.8 Å² and a collision cross section [7] of 532.64 Å².
“PRTPTAPAVNLAGAR [_PR(Citrullination (R))TPTAPAVNLAGAR_]” gave a collision cross section (charge state: 2, modification: Citrullination (R)) of 411.43 ± 0.98 Å² and a collision cross section (charge state: 3, modification: Citrullination (R)) of 471.47 ± 0.76 Å².
LLEQKTQESQK [_LLEQK(GlyGly (K))TQESQK_] gave a collision cross section (charge state: 2, modification: GlyGly (K)) of 410.36 ± 1.9 Å² and a collision cross section (charge state: 3, modification: GlyGly (K)) of 452.18 ± 1.1 Å².
“SEASSEFAKK [_SEASSEFAK(hydroxyisobutyryl)K_]” showed a collision cross section [8] of 356.42 ± 0.78 Å².
Work on SGFGKFER [_SGFGK(Propionyl)FER_] yielded a collision cross section [12] of 336.62 ± 0.34 Å².
With DFDTALKHYDK [_DFDTALK(Propionyl)HYDK_] the collision cross section [12] was 403.21 Å².
“TEVLSPNSKVESK [_TEVLSPNSK(Gluratylation)VESK_]” showed a collision cross section [3] of 408.15 ± 0.5 Å² and a collision cross section [4] of 453.95 ± 1.7 Å².
Work on LGNDFHTNKR [_LGNDFHTNK(Butyryl)R_] yielded a collision cross section [6] of 377.65 ± 0.22 Å² and a collision cross section [7] of 446.3 ± 2.8 Å².
Work on PSVSTKLISK [_PSVSTK(Crotonyl)LISK_] yielded a collision cross section [11] of 357.15 ± 0.8 Å².
“VGVEVPDVNIEGPEGKLK [_VGVEVPDVNIEGPEGK(Crotonyl)LK_]” gave a collision cross section [11] of 462.4 ± 1.4 Å².
